Key:
SSB1 S172P/H173L = SSB1 S172P/H173L (human, UniProt Q9BQ15 1-211, S172P;H173L); test: EMSA; retains ssDNA binding; EMSA: 100 nM Cy3 probe, 20 mM Tris-HCl pH 7.5, 50 mM NaCl, 5 mM MgCl2, 0.2 mM EDTA, 1 mM DTT, on ice 30 min; 6% native PAGE, 0.5x TBE, cold room; conditions: protein: recombinant; label: 3' Cy3
SSB1 R206Q = SSB1 R206Q (human, UniProt Q9BQ15 1-211, R206Q); test: as above; conditions: protein: recombinant; label: 3' Cy3
[1] = target: SSB1;INTAC complex (Integrator-PP2A) (human;human, UniProt Q9BQ15;Q8N201;Q9H0H0;Q68E01;Q96HW7;Q6P9B9;Q9UL03;Q9NVH2;Q75QN2;Q9NV88;Q9NVR2;Q5T …, |); test: EMSA; supershift versus SSB1 alone; EMSA: 100 nM Cy3 probe, 20 mM Tris-HCl pH 7.5, 50 mM NaCl, 5 mM MgCl2, 0.2 mM EDTA, 1 mM DTT, on ice 30 min; 6% native PAGE, 0.5x TBE, cold room; conditions: protein: recombinant;recombinant; on-column cleavage; copies: 1;1;1;1;1;1;1;1;1;1;1;1;1;1;1;1;1; label: 3' Cy3

Measured: binding result

Chain of SSB1 S172P/H173L (Q9BQ15 whole entry S172P/H173L): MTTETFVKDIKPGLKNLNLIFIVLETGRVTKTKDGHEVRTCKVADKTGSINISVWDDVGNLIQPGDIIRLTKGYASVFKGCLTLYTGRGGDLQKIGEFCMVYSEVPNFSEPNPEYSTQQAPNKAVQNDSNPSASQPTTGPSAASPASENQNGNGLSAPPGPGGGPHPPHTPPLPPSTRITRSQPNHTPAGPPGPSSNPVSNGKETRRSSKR
Chain of SSB1 R206Q (Q9BQ15 whole entry R206Q): as the sequence (Q9BQ15 whole entry S172P/H173L) above, with P172S, L173H, R206Q counted along it

TTTTTTTTTTTTTTTTTTTTTTTTTTTTTTTTTTTTTTTTTTTTTTTT (ssDNA) [oligo (dT)48]
binds: all assays above

Source: publication PMC10511320, “R-loop-dependent promoter-proximal termination ensures genome stability”
